Data reported in paper PMC3541965.

Tests used:
[1] = biological target: RNC bearing the nascent chain of firefly luciferase (firefly) [luciferase: P08659]; assay: fluorescence polarisation
[2] = biological target: RNC bearing the nascent chain of FtsQ (UniProt P06136); assay: fluorescence polarisation
[3] = biological target: SRP(∆FL), SRP(C235) labeled with DACM or acrylodan (E. coli) (UniProt P0AGD7); assay: time course of acrylodan fluorescence
[4] = biological target: Cm-labeled RNC bearing the engineered signal sequence 1A9L; assay: FRET or BRET

RNC bearing the nascent chain of FtsQ, sequence (P06136 whole entry, looked up): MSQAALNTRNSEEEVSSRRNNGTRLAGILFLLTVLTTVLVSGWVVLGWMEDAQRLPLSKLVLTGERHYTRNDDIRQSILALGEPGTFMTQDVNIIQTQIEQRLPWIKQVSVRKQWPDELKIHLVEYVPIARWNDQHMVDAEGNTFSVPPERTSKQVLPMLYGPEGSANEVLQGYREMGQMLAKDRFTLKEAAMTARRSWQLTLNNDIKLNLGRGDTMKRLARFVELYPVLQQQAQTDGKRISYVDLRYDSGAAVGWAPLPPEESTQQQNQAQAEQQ
RNC bearing the nascent chain of firefly luciferase (firefly) [luciferase: P08659], sequence (P08659 whole entry, looked up): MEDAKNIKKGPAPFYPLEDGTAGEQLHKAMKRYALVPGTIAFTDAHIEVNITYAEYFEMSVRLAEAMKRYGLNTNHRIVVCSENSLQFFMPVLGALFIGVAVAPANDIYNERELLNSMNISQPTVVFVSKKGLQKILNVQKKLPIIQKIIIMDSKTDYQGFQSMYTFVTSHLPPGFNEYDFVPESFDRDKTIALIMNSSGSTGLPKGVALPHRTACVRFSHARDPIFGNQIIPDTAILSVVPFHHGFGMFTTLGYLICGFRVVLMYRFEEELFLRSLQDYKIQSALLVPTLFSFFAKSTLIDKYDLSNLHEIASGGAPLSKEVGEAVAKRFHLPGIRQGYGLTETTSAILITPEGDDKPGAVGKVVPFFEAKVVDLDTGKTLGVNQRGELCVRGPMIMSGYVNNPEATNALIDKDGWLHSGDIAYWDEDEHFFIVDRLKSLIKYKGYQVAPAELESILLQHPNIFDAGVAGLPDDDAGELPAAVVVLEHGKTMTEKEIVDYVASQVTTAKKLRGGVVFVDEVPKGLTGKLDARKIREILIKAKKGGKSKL

| Substance | fold change of Kd against wild-type SRP [2] [fold] | fold weaker Kd (koff/kon) against wild-type SRP [4] [fold] | also measured |
| --- | --- | --- | --- |
| wild-type SRP with fluorescein-labeled Ffh(C421) (from UniProt P0AGD7 1-453) (complex) | – | – | Kd [1]: 128 nM; Kd [2]: 1.7 nM |
| SRP(∆FL) with fluorescein-labeled Ffh(C421) (from UniProt P0AGD7 1-453) (complex) | < 3 | – | – |
| SRP(LM→AA) with fluorescein-labeled Ffh(C421) (from UniProt P0AGD7 1-453) (complex) | < 3 | – | – |
| FtsY (from UniProt P10121 1-497) (receptor) | – | – | fold slower dissociation rate constant against wild-type SRP [3]: 80 fold |
| SRP(LM→AA) with BODIPY-FL labeled at residue 421 of Ffh (from UniProt P0AGD7 1-453) (complex) | – | 6 | – |
| SRP(∆FL) with BODIPY-FL labeled at residue 421 of Ffh (from UniProt P0AGD7 1-453) (complex) | – | 2 | – |
